From US6500431B1, “Inhibitors of angiogenesis and tumor growth” (University of Southern California, priority 1998, dated 2002)
Entries after “also recorded” stand apart in the source; their conditions may differ.

Assays:
[1] = tested on: Lewis lung carcinoma, melanoma (B16), T-cell lymphoma (EL-4), KS Y-1; assay: Syngeneic tumors in C57BL/6 mice, KS Y-1 in nude mice; assay type: in vivo; settings: 2.5 mg/kg the day following implantation; two weeks
Method: FIG. 4: Inhibition of tumor growth in mice. C57BL/6 mice were implanted with Lewis lung carcinoma, melanoma (B16), and T-cell lymphoma (EL4). KS Y-1 was implanted in nude mice as a positive control. One day after implantation 2.5 mg/kg of Saposin B was injected into the mice subcutaneously.
To determine whether this anti-tumor effect was reproducible with different classes of syngeneic tumors, C57BL/6 mice were implanted with Lewis lung carcinoma, melanoma (B16), and T-cell lymphoma (EL-4) cell lines. KS Y-1 was implanted into nude mice for a positive control. The day following tumor implantation, 2.5 mg/kg of Saposin B was administered intraperitoneally. Tumor size was measured three times a week for two weeks at which time the mice were sacrificed for analysis. […] See, FIG. 4

endothelial cells = assay: Endothelial cell migration assay, fibronectin-coated transwell; assay type: cell-based; settings: chemotaxis induced by VEGF or bFGF
Method: The assays were done in double chamber wells separated by […] membrane. Chemotaxis was induced by bFGF (25 ng/mL) in the lower chamber. Endothelial cells or KS cells (5×10^4/mL) were placed in the upper chamber in the presence and absence of test polypeptides. Taxol at 10 ng/mL was used as a known inhibitor of migration. Cell migration across the membrane was quantitated after an overnight incubation.
Angiogenesis is mediated by complex biochemical processes including degradation of the basement membrane under existing blood vessel endothelial cells, followed by proliferation and migration of endothelial cells, followed by formation of capillary loops, and recruitment of vascular smooth muscle cells to encase the newly formed vessels and provide stability. […]
Briefly, wells were coated with fibronectin (25 μg/mL) overnight, and endothelial cells or KS cells were plated in the upper chamber with 100 μL of DMEM/0.4% FCS. […] The plates were incubated for 5 hr at 37° C. and the cells crossing the fibronectin-coated membrane were counted after wiping the cells off the membrane in the upper chamber with a cotton swab.
The cells that traversed the membrane were fixed with Diff-Quik stain according to the manufacturer's instruction (Dade Diagnostics Inc., Aguada, PR). The cells were counted under a microscope at 320× in four randomly selected fields. […]

KS cell lines = assay: Activity of recombinant Prosaposin chains on growth of KS cell lines; assay type: cell-based; settings: FIG. 1
From the text: In order to determine whether recombinant Saposin B has anti-angiogenic activity, the coding region of each of the Prosaposin chains was amplified from fibroblast cell lines and cloned into both bacterial (pGEX-KG) and eukaryotic (pcDNA 3.1His A) expression vectors.
The PCR products were digested with the respective restriction enzymes and the restriction products were inserted into the pGEX-KG vector for bacterial expression. pGEX-KG vector comprises a glutathione S transferase (GST)-tag at the […] of the insertion site so that a GST-fusion protein is expressed. The GST-tag is used to aid in purification of the recombinant protein. After elution from a glutathione-Sepharose 4B column, the GST-tagged proteins were incubated with thrombin (4 μg/ml) for 4 hr at room temperature (22-25° C.) in 50 mM Tris, pH 8.3, 3 mM CaCl2, 150 mM NaCl to cleave GST from the fusion protein. Free GST was removed from the preparation by passing the digested fusion protein through the glutathione-Sepharose 4B column.
By SDS-PAGE, the bacterial product was smaller than the eukaryotic protein. Because prokaryotically expressed proteins are not glycosylated, the difference in molecular weights probably represents the presence of carbohydrate in the eukaryotic protein. Recombinant proteins were then tested in KS, endothelial and control cell lines. Activity was found only in KS cell lines and endothelial cells.

B1: Saposin B: polypeptide fragment of Prosaposin (positions 190 to 269), SEQ ID NO:2; recombinantly expressed (protein)
chain: GDVCQDCIQMVTDIQTAVRTNSTFVQALVEHVKEECDRLGPGMADICKNYISQYSEIAIQMMMHMQPKEICALVGFCDEVK
tumor growth [1]: profound inhibition of tumor growth | inhibition of endothelial cell migration (endothelial cells): compete inhibition of cell migration; also recorded: inhibited endothelial cell migration | growth inhibition of KS cells (KS cell lines): dose dependent growth inhibition
